Test [1] deals with ddFP-B3-inserted NCad (NCad-B3) (mouse) (UniProt P15116). The experiment in a line: split reporter (BiFC, NanoBiT); dimerization-dependent fluorescent protein; HEK293T cells co-expressing both components (mCherry-NLS) co-cultured with cells expressing NCad without fluorescent protein (EBFP2-NLS); signal at R-R against B-R cell adhesion sites.
The target in test [2] is ddFP-B1-inserted NCad (NCad-B1) (mouse) (UniProt P15116). Described as above.
Test [3] has as its target ddFP-B3-inserted NCad (NCad-B3) (mouse) (UniProt P15116). The experiment in a line: split reporter (BiFC, NanoBiT); dimerization-dependent fluorescent protein; time-lapse of HEK293T cells each expressing one component, from seeding for 120 min, then 10 mM EGTA for 120 min; washout of EGTA in a further experiment.
The target of test [4] is ddFP-B1-inserted NCad (NCad-B1) (mouse) (UniProt P15116). The test is described as above.
Another test addresses N-cadherin (UniProt P15116). Particulars: cited from earlier work.

Contrast of signal between R-R and B-R cell adhesion sites, time to 50% of the signal after addition of 10 mM EGTA and Kd data for two substances are collected here from publication PMC9546846.

Sequence of N-cadherin (P15116 160-724): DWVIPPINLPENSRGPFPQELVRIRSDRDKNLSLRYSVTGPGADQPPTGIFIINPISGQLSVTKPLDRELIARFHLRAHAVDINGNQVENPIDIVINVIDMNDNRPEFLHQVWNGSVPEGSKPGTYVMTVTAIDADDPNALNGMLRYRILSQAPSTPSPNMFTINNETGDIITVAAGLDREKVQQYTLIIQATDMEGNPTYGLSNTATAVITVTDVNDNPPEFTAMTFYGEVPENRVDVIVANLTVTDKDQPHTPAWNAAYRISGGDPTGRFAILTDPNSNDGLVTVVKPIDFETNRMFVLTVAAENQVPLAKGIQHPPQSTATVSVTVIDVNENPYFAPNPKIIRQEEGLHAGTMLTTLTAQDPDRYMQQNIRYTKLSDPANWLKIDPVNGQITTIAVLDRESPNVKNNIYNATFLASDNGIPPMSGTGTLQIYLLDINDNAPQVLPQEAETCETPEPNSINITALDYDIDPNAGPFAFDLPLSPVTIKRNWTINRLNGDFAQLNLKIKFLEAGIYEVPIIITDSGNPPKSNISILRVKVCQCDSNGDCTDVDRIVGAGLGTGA

Turning to “ddGFP-A-inserted NCad (NCad-GA) (from UniProt P15116 26-311; P15116 312-906)”, the contrast of signal between R-R and B-R cell adhesion sites in test [1] was found to be 7.72; in test [2], 5.31. Moreover, the time to 50% of the signal after addition of 10 mM EGTA in test [3] and in test [4] was 50 min throughout.

Turning to N-cadherin (from UniProt P15116), in the test with N-cadherin, the Kd is 25 µM.

As a reminder, the Kd is the equilibrium constant for the complex coming apart.
